pKd: −log10 of the molar value.
Test system: preKARS2 (cytosolic precursor of human mitochondrial lysyl-tRNA synthetase) (human), Q15046-2
Experiment: EMSA
Settings: 10 mM Mg2+; unmodified T7 transcript; EMSA: 20 mM Tris-HCl pH 7.5, 150 mM NaCl, 10 mM MgCl2, 5 mM DTT, 10% glycerol, 0.1 mg/ml BSA, 30 C, 15 min; native 8% PAGE in 0.5x Tris-borate pH 8.3, 5% …

Sequence of preKARS2 (cytosolic precursor of human mitochondrial lysyl-tRNA synthetase) (human), Q15046-2 (Q15046 other isoform, or with tags, fused parts or gaps): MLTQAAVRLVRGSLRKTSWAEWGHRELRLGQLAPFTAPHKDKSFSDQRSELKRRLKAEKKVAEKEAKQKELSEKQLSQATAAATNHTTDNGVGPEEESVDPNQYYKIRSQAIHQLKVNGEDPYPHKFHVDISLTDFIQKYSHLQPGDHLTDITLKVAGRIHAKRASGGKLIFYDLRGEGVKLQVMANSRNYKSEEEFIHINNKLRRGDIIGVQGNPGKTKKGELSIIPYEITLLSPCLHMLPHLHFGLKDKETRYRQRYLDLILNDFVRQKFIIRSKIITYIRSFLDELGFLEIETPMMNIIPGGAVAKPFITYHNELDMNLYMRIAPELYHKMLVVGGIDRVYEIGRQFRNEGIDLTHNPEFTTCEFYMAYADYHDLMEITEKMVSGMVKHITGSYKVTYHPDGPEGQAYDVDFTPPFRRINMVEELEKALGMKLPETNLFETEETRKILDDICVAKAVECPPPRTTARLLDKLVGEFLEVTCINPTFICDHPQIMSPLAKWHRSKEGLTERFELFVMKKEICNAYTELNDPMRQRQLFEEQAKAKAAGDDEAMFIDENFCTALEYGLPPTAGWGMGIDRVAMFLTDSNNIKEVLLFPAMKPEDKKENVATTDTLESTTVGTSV

tRK1 (yeast tRNALys CUU)
pKd: 6.52
